In CN106084048A (UNIV SUN YAT SEN, dated 2016):

B1: 抗CD3单域抗体 C57 (VHH)
VHH: QVQLQESGGGLVQAGDSLRLSCAASGRTFSSYVMGWFRQAPGKEREFVAAIRWSGGSTYYADSVKGRFTISRDNAKNTMYLQMNSLKPEDTAVYYCAAAQKINTDVTGAYWGQGTQVTVSS
notes: Llama sdAb from a phage library; Tested as unpurified sdAb-SASA protein in E. coli expression medium / culture supernatant (FASEBA format); 1 in its text; also called sdAb C57; not shown: SASA fusion partner of the pFASEBA vector (sdAb-SASA protein in the expression medium)
B2: 抗CD3单域抗体 C58 (VHH)
VHH: QVQLQESGGGLVQPGGSLRLSCAASGFTLDYYAIGWFRQAPGKEREGVSCISSGDGTTYYADSVKGRFTISRDNAKNTVYLQMNSLKPEDTAVYYCAAARTRKVISIATMTLDPKVFASWGQGTQVTVSS
notes: Llama sdAb from a phage library; Tested as unpurified sdAb-SASA protein in E. coli expression medium / culture supernatant (FASEBA format); 3 in its text; also called sdAb C58; not shown: SASA fusion partner of the pFASEBA vector (sdAb-SASA protein in the expression medium)

Assays:
CD3 on Jurkat cells [1] = biological target: CD3 on Jurkat cells (UniProt P07766); assay: flow cytometry, culture supernatant on Jurkat cells (negative control)
CD3 on Jurkat cells [2] = biological target: CD3 on Jurkat cells (UniProt P07766); assay: flow cytometry, culture supernatant on Jurkat cells
CD3-His蛋白(MP-5) = biological target: T1, CD3-His蛋白(MP-5) (UniProt P07766 23-126); assay: BLI (Octet RED96), sdAb-SASA from expression medium captured on BSA-coated biosensor, 100 nM CD3 in solution, 1:1 Langmuir fit, 30°C
T1 construct: Immunogen and panning antigen; The Octet method speaks only of 'CD3蛋白' in solution at 100 nM; also called CD3蛋白; not shown: His tag
T1 sequence (P07766 23-126): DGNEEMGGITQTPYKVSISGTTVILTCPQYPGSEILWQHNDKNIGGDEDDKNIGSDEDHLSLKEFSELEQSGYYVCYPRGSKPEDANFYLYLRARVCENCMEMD

Molecule | MFI (CD3 on Jurkat cells [1]) [MFI] | MFI (CD3 on Jurkat cells [2]) [MFI] | koff (CD3-His蛋白(MP-5)) [s⁻¹]
NC-sdAb(相同形式的非相关性sdAb) (VHH) | 115 | – | –
B1 | – | 213 | 4.6e-05
B2 | – | 245 | 3.91e-05
